Measurements published in the Human Domainome abundance scans (Beltran et al. 2025).
± gives the uncertainty stated by the source.

B1: Poly(rC)-binding protein 1, residues 278 to 350; numbered along this chain, Q15365 (parent)
chain: TQTTHELTIPNNLIGCIIGRQGANINEIRQMSGAQIKIANPVEGSSGRQVTITGSAASISLAQYLINARLSSE

Variants of: B1
Assay: abundance fitness (aPCA) (normalised: wild type 0, dead -1); higher = more abundant; growth selection in yeast, the domain comes from the species named
Details: Homo sapiens

Variant	abundance fitness
A34R	-0.721 ± 0.085
A34F	-0.447 ± 0.35
A34C	-0.462 ± 0.18
A34W	-0.759 ± 0.12
A34Q	-0.641 ± 0.12
A34P	-0.372 ± 0.15
A34G	-0.597 ± 0.079
A34K	-0.943 ± 0.2
A34V	-0.792 ± 0.15
A34L	-1.18 ± 0.31
A34E	-1.24 ± 0.3
A34T	0.023 ± 0.071
A34S	-0.122 ± 0.073
G44V	-0.353 ± 0.078
G44P	-0.211 ± 0.054
G44L	-0.401 ± 0.05
G44R	-0.212 ± 0.055
G44D	-0.087 ± 0.13
G44K	-0.229 ± 0.066
G44I	-0.732 ± 0.18
G44N	-0.12 ± 0.088
G44F	-0.182 ± 0.094
G44C	-0.19 ± 0.12
G44T	-0.374 ± 0.059

Variant	abundance fitness
G44Y	0.081 ± 0.078
G44M	-0.343 ± 0.068
G44Q	-0.308 ± 0.069
G44S	-0.235 ± 0.049
G44E	-0.278 ± 0.1
G44H	-0.333 ± 0.1
G44A	-0.213 ± 0.065
G44W	-0.424 ± 0.1
E43I	0.01 ± 0.065
E43S	-0.02 ± 0.045
E43H	-0.021 ± 0.054
E43M	0.05 ± 0.07
E43Y	-0.051 ± 0.052
E43A	-0.249 ± 0.072
E43V	0.073 ± 0.057
E43W	-0.18 ± 0.091
E43L	-0.039 ± 0.045
E43F	-0.179 ± 0.067
E43C	-0.168 ± 0.083
E43T	-0.119 ± 0.056
E43G	-0.115 ± 0.077
E43Q	-0.258 ± 0.079
E43R	-0.061 ± 0.046
E43N	-0.024 ± 0.054

Variant	abundance fitness
N26R	0.032 ± 0.028
N26W	-0.34 ± 0.047
N26V	-0.327 ± 0.042
N26T	-0.022 ± 0.049
N26S	-0.003 ± 0.041
N40M	-0.052 ± 0.056
N40H	-0.094 ± 0.084
N40K	0.02 ± 0.056
N40V	-0.266 ± 0.04
N40A	-0.023 ± 0.039
N40D	0.034 ± 0.07
N40C	-0.085 ± 0.058
N40I	-0.553 ± 0.18
N40P	-0.002 ± 0.048
N40E	0.004 ± 0.046
N40S	-0.012 ± 0.042
N40T	-0.16 ± 0.06
N40Q	0.086 ± 0.048
N40W	-0.512 ± 0.053
N40Y	-0.165 ± 0.1
N40F	-0.373 ± 0.096
N40L	-0.17 ± 0.041
N40G	0.026 ± 0.029
N40R	0.016 ± 0.031

Variant	abundance fitness
I28L	-0.143 ± 0.035
I28E	-0.895 ± 0.2
I28V	-0.257 ± 0.038
I28F	-0.65 ± 0.22
I28G	-0.78 ± 0.083
I28R	-0.825 ± 0.095
I28H	-0.956 ± 0.28
I28A	-0.735 ± 0.087
I28M	-0.281 ± 0.049
I28W	-0.408 ± 0.11
I28P	-0.939 ± 0.13
I28C	-0.633 ± 0.17
I28S	-1.04 ± 0.18
I28D	-0.524 ± 0.2
I28Y	-0.731 ± 0.29
I28Q	-0.683 ± 0.2
Q30S	0.023 ± 0.064
Q30F	-0.094 ± 0.16
Q30L	-0.163 ± 0.035
Q30R	0.099 ± 0.038
Q30D	-0.502 ± 0.41
Q30N	0.147 ± 0.42
Q30E	0.013 ± 0.079
Q30A	0.001 ± 0.047

Variant	abundance fitness
Q30C	-0.341 ± 0.13
Q30M	-0.137 ± 0.048
Q30W	-0.334 ± 0.056
Q30T	0.064 ± 0.074
Q30G	-0.168 ± 0.047
Q30P	-0.809 ± 0.16
Q30K	0.172 ± 0.092
P41T	-0.081 ± 0.058
P41C	-0.09 ± 0.065
P41I	-0.196 ± 0.12
P41E	-0.012 ± 0.042
P41R	0.018 ± 0.035
P41S	-0.061 ± 0.046
P41D	-0.092 ± 0.053
P41A	0.057 ± 0.038
P41M	0.115 ± 0.057
P41G	-0.11 ± 0.033
P41Y	-0.021 ± 0.1
P41Q	0.049 ± 0.055
P41L	-0.046 ± 0.047
P41V	-0.218 ± 0.043
I36G	-0.782 ± 0.062
I36F	-0.5 ± 0.21
I36W	-1.04 ± 0.12

Variant	abundance fitness
I36A	-0.97 ± 0.14
I36M	-0.648 ± 0.078
I36N	-0.689 ± 0.29
I36R	-0.835 ± 0.069
I36H	0.062 ± 0.43
I36L	-0.406 ± 0.045
I36Q	-0.829 ± 0.14
I36K	-1.14 ± 0.27
I36D	-0.852 ± 0.42
I36E	-0.986 ± 0.18
I36P	-1.01 ± 0.24
I36C	-0.276 ± 0.2
I36Y	-0.767 ± 0.43
G33Y	-1.01 ± 0.35
G33M	-0.657 ± 0.11
G33V	-1.05 ± 0.12
G33N	-0.439 ± 0.13
G33H	-0.618 ± 0.24
G33C	-0.652 ± 0.13
G33T	-0.575 ± 0.11
G33F	-0.927 ± 0.26
G33E	-0.541 ± 0.078
G33I	-0.296 ± 0.24
G33W	-0.414 ± 0.096

Variant	abundance fitness
G33P	-1.04 ± 0.23
G33R	-0.324 ± 0.045
G33Q	-0.204 ± 0.075
G33A	-0.405 ± 0.056
G33K	-0.362 ± 0.066
G33S	-0.382 ± 0.071
G33L	-0.61 ± 0.081
S32W	-1.14 ± 0.23
S32M	-0.703 ± 0.087
S32Q	-0.334 ± 0.14
S32I	-0.882 ± 0.25
S32D	-0.965 ± 0.19
S32C	-0.201 ± 0.13
S32P	-0.91 ± 0.26
S32K	-0.8 ± 0.11
S32F	-1 ± 0.47
S32A	-0.498 ± 0.074
S32G	-0.793 ± 0.054
S32T	-0.16 ± 0.048
S32R	-0.85 ± 0.07
S32V	-0.858 ± 0.086
S32L	-0.703 ± 0.12
I38F	-0.301 ± 0.16
I38P	-0.631 ± 0.12

Variant	abundance fitness
I38D	-0.754 ± 0.14
I38L	-0.11 ± 0.048
I38R	-0.737 ± 0.068
I38T	-0.403 ± 0.11
I38C	-0.793 ± 0.35
I38V	-0.094 ± 0.041
I38M	-0.333 ± 0.077
I38E	-0.679 ± 0.085
I38K	-0.612 ± 0.11
I38S	-0.814 ± 0.13
I38W	-0.53 ± 0.063
I38G	-0.727 ± 0.054
I38Q	-0.828 ± 0.14
I38A	-0.672 ± 0.07
R29A	-0.059 ± 0.033
R29M	-0.022 ± 0.056
R29H	-0.225 ± 0.14
R29N	0.037 ± 0.12
R29P	-0.817 ± 0.19
R29L	-0.386 ± 0.05
R29C	-0.205 ± 0.059
R29Y	-0.55 ± 0.23
R29F	-0.271 ± 0.15
R29D	-0.631 ± 0.17

Variant	abundance fitness
R29S	-0.046 ± 0.05
R29W	-1.06 ± 0.16
R29Q	0.067 ± 0.063
R29I	-0.081 ± 0.1
R29T	-0.085 ± 0.066
R29V	-0.129 ± 0.036
R29G	-0.142 ± 0.035
R29K	-0.18 ± 0.082
R29E	0.062 ± 0.058
K37I	0.124 ± 0.097
K37N	0.032 ± 0.086
K37F	-0.41 ± 0.22
K37Q	0.083 ± 0.064
K37G	-0.255 ± 0.04
K37V	-0.032 ± 0.032
K37M	-0.065 ± 0.045
K37D	-0.034 ± 0.076
K37E	0.01 ± 0.051
K37L	-0.142 ± 0.036
K37A	-0.109 ± 0.049
K37T	0.051 ± 0.064
K37H	-0.272 ± 0.15
K37C	-0.4 ± 0.17
K37Y	0.007 ± 0.1

Variant	abundance fitness
K37P	-0.718 ± 0.17
K37S	-0.11 ± 0.066
K37W	-0.215 ± 0.051
S45T	0.056 ± 0.046
S45C	0.012 ± 0.13
S45N	-0.031 ± 0.067
S45Q	-0.054 ± 0.065
S45F	-0.009 ± 0.094
S45Y	-0.044 ± 0.075
S45H	-0.223 ± 0.087
S45G	-0.292 ± 0.12
S45I	-0.093 ± 0.076
S45V	-0.012 ± 0.087
S45D	0.026 ± 0.15
S45E	0.002 ± 0.1
S45L	-0.011 ± 0.05
S45A	-0.002 ± 0.062
S45R	-0.157 ± 0.07
S45P	-0.442 ± 0.091
S45M	0.005 ± 0.073
S45W	-0.431 ± 0.15
S45K	0.094 ± 0.076
E27P	-0.704 ± 0.13
E27Q	0.028 ± 0.053

Variant	abundance fitness
E27D	-0.099 ± 0.076
E27L	-0.225 ± 0.045
E27S	-0.035 ± 0.047
E27M	0.014 ± 0.047
E27C	-0.169 ± 0.065
E27G	-0.244 ± 0.034
E27K	0.021 ± 0.065
E27A	-0.18 ± 0.04
E27I	-0.164 ± 0.19
E27Y	-0.157 ± 0.12
E27V	-0.26 ± 0.035
E27R	0.005 ± 0.031
E27H	-0.09 ± 0.086
E27N	0.08 ± 0.11
E27W	-0.136 ± 0.04
E27F	-0.564 ± 0.17
E27T	-0.102 ± 0.078
Q35I	-0.104 ± 0.17
Q35T	0.017 ± 0.072
Q35V	-0.119 ± 0.035
Q35A	-0.11 ± 0.047
Q35L	-0.15 ± 0.039
Q35F	-0.233 ± 0.14
Q35C	-0.15 ± 0.09

Variant	abundance fitness
Q35Y	-0.231 ± 0.28
Q35N	0.088 ± 0.12
Q35R	0.023 ± 0.044
Q35G	-0.13 ± 0.039
Q35S	-0.012 ± 0.057
Q35M	-0.09 ± 0.047
Q35E	-0.058 ± 0.065
Q35H	0.138 ± 0.15
Q35P	-0.641 ± 0.099
Q35W	-0.21 ± 0.062
Q35D	0.001 ± 0.083
S46I	-0.104 ± 0.08
S46K	-0.002 ± 0.044
S46C	-0.021 ± 0.081
S46A	-0.015 ± 0.051
S46H	-0.205 ± 0.084
S46D	0.19 ± 0.076
S46F	0.002 ± 0.075
S46E	-0.088 ± 0.057
S46G	-0.032 ± 0.057
M31V	-0.126 ± 0.047
M31I	-0.196 ± 0.14
M31A	0.038 ± 0.046
M31Q	0.095 ± 0.047

Variant	abundance fitness
M31T	-0.051 ± 0.073
M31C	0.029 ± 0.088
M31G	-0.347 ± 0.043
M31K	0.162 ± 0.061
M31Y	-0.056 ± 0.16
M31L	-0.009 ± 0.042
M31W	-0.325 ± 0.056
M31R	0.088 ± 0.032
M31P	-0.894 ± 0.17
M31S	-0.171 ± 0.053
M31E	0.019 ± 0.049
M31N	0.203 ± 0.13
M31F	-0.109 ± 0.24
M31D	-0.337 ± 0.18
V42E	-0.011 ± 0.044
V42R	-0.012 ± 0.032
V42D	-0.028 ± 0.074
V42N	-0.272 ± 0.13
V42Y	-0.141 ± 0.1
V42Q	-0.159 ± 0.058
V42C	-0.086 ± 0.085
V42S	-0.028 ± 0.042
V42I	-0.007 ± 0.11
V42T	-0.1 ± 0.059

Variant	abundance fitness
V42M	-0.229 ± 0.067
V42G	-0.13 ± 0.035
V42L	-0.151 ± 0.045
V42H	-0.186 ± 0.12
V42K	-0.017 ± 0.052
V42W	-0.525 ± 0.061
V42P	-0.192 ± 0.062
A39I	-0.029 ± 0.12
A39C	-0.035 ± 0.089
A39D	0.032 ± 0.097
A39M	-0.092 ± 0.05
A39L	-0.04 ± 0.038
A39W	-0.071 ± 0.055
A39N	0.076 ± 0.15
A39F	-0.46 ± 0.19
A39P	-0.428 ± 0.1
A39G	0.061 ± 0.034
A39R	-0.17 ± 0.039
A39Q	-0.075 ± 0.077
A39K	-0.05 ± 0.071
A39V	-0.382 ± 0.046
A39S	0.03 ± 0.049
